Laboratory results published in patent US20260015434A1, “ANTIBODY MATERIALS AND METHODS TARGETING MICROBIAL POLYSACCHARIDES” (priority 2022, published 2026).

System: PNAG conjugates on the array (dPNAG, PNAG and intermediate levels of deacetylation)
Assay: Neoglycoprotein (glycan) microarray binding, 816-component array
Settings: ability to bind both dPNAG and PNAG and intermediate levels of deacetylation

Molecule	PNAG Binding on Array
TG10 D116A: TG10 HC D116A (SEQ ID NO: 34) with TG10 LC (SEQ ID NO: 12) (antibody, V domains shown, Site directed mutation of TG10 HC Variable Region; TG10 Light Chain Variable Region) VH: EVQLVESGGGLVQPGGSLRLSCAVSGFPFSSYWMSWVRQAPGKGLEWVANIKEDGSEKYYVDSVKGRFTISRDNAKNSLYLQMNSLRAEDTAVYYCATDPDVGLSASWGQGTLVTVSS VL: EIVLTQSPGTLSLSPGDRATHSCRASQSVSRSYLAWYQQKPGQTPRLFIYGASNRATGIPDRFSGSGSGTYFTLTISRLEPEDFAVYYCQQYDSAPDTFGQGTRLEIK	Yes
TG10 E57A: TG10 HC E57A (SEQ ID NO: 37) with TG10 LC (SEQ ID NO: 12) (antibody, V domains shown, Site directed mutation of TG10 HC Variable Region; TG10 Light Chain Variable Region) VH: EVQLVESGGGLVQPGGSLRLSCAVSGFPFSSYWMSWVRQAPGKGLEWVANIKADGSEKYYVDSVKGRFTISRDNAKNSLYLQMNSLRAEDTAVYYCATDPDVGLSDSWGQGTLVTVSS VL: EIVLTQSPGTLSLSPGDRATHSCRASQSVSRSYLAWYQQKPGQTPRLFIYGASNRATGIPDRFSGSGSGTYFTLTISRLEPEDFAVYYCQQYDSAPDTFGQGTRLEIK	Yes
729 × TG: 15729 HC (SEQ ID NO: 44) with TG10 LC (SEQ ID NO: 12) (antibody, V domains shown, Based on an antibody sequence.; TG10 Light Chain Variable Region) VH: EVQLVESGGGLVQPGGSLRLSCAASGFTFSSYWMSWVRQAPGKGLEWVANIKQDGSEKYYVDSVKGRFTISRDNAKNSLYLQMNSLRAEDTAVYYCARDPDGRIFDYWGQGTLVTVSS VL: EIVLTQSPGTLSLSPGDRATHSCRASQSVSRSYLAWYQQKPGQTPRLFIYGASNRATGIPDRFSGSGSGTYFTLTISRLEPEDFAVYYCQQYDSAPDTFGQGTRLEIK	No
TG10 LC Y55A: TG10 HC (SEQ ID NO: 3) with TG10 LC Y55A (SEQ ID NO: 40) (antibody, V domains shown, TG10 Heavy Chain Variable Region; Site directed mutation of TG10 LC Variable Region) VH: EVQLVESGGGLVQPGGSLRLSCAVSGFPFSSYWMSWVRQAPGKGLEWVANIKEDGSEKYYVDSVKGRFTISRDNAKNSLYLQMNSLRAEDTAVYYCATDPDVGLSDSWGQGTLVTVSS VL: EIVLTQSPGTLSLSPGDRATHSCRASQSVSRSYLAWYQQKPGQTPRLFIAGASNRATGIPDRFSGSGSGTYFTLTISRLEPEDFAVYYCQQYDSAPDTFGQGTRLEIK	Yes
TG10 V110R: TG10 HC V110R (SEQ ID NO: 39) with TG10 LC (SEQ ID NO: 12) (antibody, V domains shown, Site directed mutation of TG10 HC Variable Region; TG10 Light Chain Variable Region) VH: EVQLVESGGGLVQPGGSLRLSCAVSGFPFSSYWMSWVRQAPGKGLEWVANIKEDGSEKYYVDSVKGRFTISRDNAKNSLYLQMNSLRAEDTAVYYCATDPDRGLSDSWGQGTLVTVSS VL: EIVLTQSPGTLSLSPGDRATHSCRASQSVSRSYLAWYQQKPGQTPRLFIYGASNRATGIPDRFSGSGSGTYFTLTISRLEPEDFAVYYCQQYDSAPDTFGQGTRLEIK	Yes
285 × TG: 4488285 HC (SEQ ID NO: 46) with TG10 LC (SEQ ID NO: 12) (antibody, V domains shown, Based on an antibody sequence.; TG10 Light Chain Variable Region) VH: EVQLVESGGGLVQPGGSLRLSCAASGFTFSSYWMSWVRQAPGKGLEWVANIKQDGSEKYYVDSVKGRFTISRDNAKNSLYLQMNSLRAEDTAVYYCARDPYMGLIDYWGQGTLVTVSS VL: EIVLTQSPGTLSLSPGDRATHSCRASQSVSRSYLAWYQQKPGQTPRLFIYGASNRATGIPDRFSGSGSGTYFTLTISRLEPEDFAVYYCQQYDSAPDTFGQGTRLEIK	No
TG10 P108A: TG10 HC P108A (SEQ ID NO: 36) with TG10 LC (SEQ ID NO: 12) (antibody, V domains shown, Site directed mutation of TG10 HC Variable Region; TG10 Light Chain Variable Region) VH: EVQLVESGGGLVQPGGSLRLSCAVSGFPFSSYWMSWVRQAPGKGLEWVANIKEDGSEKYYVDSVKGRFTISRDNAKNSLYLQMNSLRAEDTAVYYCATDADVGLSDSWGQGTLVTVSS VL: EIVLTQSPGTLSLSPGDRATHSCRASQSVSRSYLAWYQQKPGQTPRLFIYGASNRATGIPDRFSGSGSGTYFTLTISRLEPEDFAVYYCQQYDSAPDTFGQGTRLEIK	Yes
TG10 Y37A: TG10 HC Y37A (SEQ ID NO: 31) with TG10 LC (SEQ ID NO: 12) (antibody, V domains shown, Site directed mutation of TG10 HC Variable Region; TG10 Light Chain Variable Region) VH: EVQLVESGGGLVQPGGSLRLSCAVSGFPFSSAWMSWVRQAPGKGLEWVANIKEDGSEKYYVDSVKGRFTISRDNAKNSLYLQMNSLRAEDTAVYYCATDPDVGLSDSWGQGTLVTVSS VL: EIVLTQSPGTLSLSPGDRATHSCRASQSVSRSYLAWYQQKPGQTPRLFIYGASNRATGIPDRFSGSGSGTYFTLTISRLEPEDFAVYYCQQYDSAPDTFGQGTRLEIK	Yes
TG10 Y66A: TG10 HC Y66A (SEQ ID NO: 38) with TG10 LC (SEQ ID NO: 12) (antibody, V domains shown, Site directed mutation of TG10 HC Variable Region; TG10 Light Chain Variable Region) VH: EVQLVESGGGLVQPGGSLRLSCAVSGFPFSSYWMSWVRQAPGKGLEWVANIKEDGSEKAYVDSVKGRFTISRDNAKNSLYLQMNSLRAEDTAVYYCATDPDVGLSDSWGQGTLVTVSS VL: EIVLTQSPGTLSLSPGDRATHSCRASQSVSRSYLAWYQQKPGQTPRLFIYGASNRATGIPDRFSGSGSGTYFTLTISRLEPEDFAVYYCQQYDSAPDTFGQGTRLEIK	Yes
ADI-45379: Original clone from screen; HC SEQ ID NO: 1, LC SEQ ID NO: 2 (antibody, listed as Homo sapiens, V domains shown) VH: EVQLLESGGGLVQPGGSLRLSCAVSGFPFSSYWMSWVRQAPGKGLEWVANIKEDGSEKYYVDSVKGRFTISRDNAKNSLYLQMNSLRAEDTAVYYCATDPDVGLSDSWGQGTLVTVSS VL: ETTLTQSPATLSLSPGDRATHSCRASQSVSRSYLAWYQQKPGQTPRLFIYGASNRATGIPDRFSGSGSGTYFTLTISRLEPEDFAVYYCQQYDSAPDTFGQGTRLEIK	Yes
120 × TG: 1467120 HC (SEQ ID NO: 45) with TG10 LC (SEQ ID NO: 12) (antibody, V domains shown, Based on an antibody sequence.; TG10 Light Chain Variable Region) VH: QVQLVESGGGLVQPGGSLRLSCAASGFTFSSYWMSWVRQAPGKGLEWVANIKQDGSEKYYVDSVKGRFTISRDNAKNSLYLQMNSLRAEDTAVYYCARDPEGGLPDYWGQGTLVTVSS VL: EIVLTQSPGTLSLSPGDRATHSCRASQSVSRSYLAWYQQKPGQTPRLFIYGASNRATGIPDRFSGSGSGTYFTLTISRLEPEDFAVYYCQQYDSAPDTFGQGTRLEIK	No

System: PNAG 0 (fully deacetylated glucosamine pentasaccharide conjugate)
Assay: Glycan microarray binding / apparent KD
Settings: fully deacetylated PNAG conjugate PNAG 0
Experimental: Neoglycoprotein (NGP) microarray fabrication was performed as follows. Several NGP microarrays were constructed as previously described. Two large arrays (8 duplicate arrays per slide) composed of 815 and 870 neoglycoproteins, glycoproteins, glycopeptide conjugates, and controls were constructed and used for the experiments in this report. Additionally, a PNAG-focused array (16 duplicates per slide) with 49 array components was fabricated and used to determine apparent KD values. Array component parent stocks were diluted to 125-200 μg/mL into print buffer (1×PBS buffer with 2.5% (v/v) glycerol, 0.0005% (v/v) Triton-X 100, 0.0005 μg/mL soluble print dye 0.05 μg/mL Atto 532 (Sigma 06699). Formulated components were printed in duplicate onto 2D-Epoxy functionalized glass slides (Poly-An #104-00-221) or SuperEpoxy 2 microarray slides (ArrayIt) using an Arrayit NanoPrint LM60 arrayer at 60% humidity. Following the print, slides were scanned in a microarray fluorescence scanner (Innopsys, InnoScan 1100 AL) to validate that array components were successfully deposited onto the slide surface. Binding profiles for a representative set of lectins and antibodies were used as QC for each printed microarray batch. The printed NGP microarrays were stored under vacuum at −20° C.
Antibody selectivity and apparent KD were determined using a NGP microarray. A pre-assay scan was performed to control for missing features. Selectivity and affinity of most mAbs were measured on the full array. A focused array was used to acquire an apparent KD measurement. A slide module (8 well for full array and 16-well for focused array) was mounted onto each slide and blocking buffer (3% BSA in PBS, pH 7.4) was applied to each well of the array. Blocking was performed overnight at 4° C. mAbs were serial diluted in binding buffer (1% BSA in PBST, pH 7.4). Following the block, wells were washed 4× with wash buffer (PBST, PBS with 0.05% tween-20). Primary mAb incubation was performed for 2.5 hours at 37° C. The wells were washed 5× with wash buffer. A CY3-labeled secondary antibody specific for the Fc portion of human IgG was diluted 500 fold into binding buffer and added to each array well (Jackson ImmunoResearch, 109-165-098). Secondary mAb incubation was performed for 1.5 hours at 37° C. Wells were washed 5× with wash buffer. Slides were removed from the slide module and submerged in wash buffer for 5 minutes. Washed slides were dried by centrifugation @ 1000×g in a centrifuge quipped with a swing bucket rotor. Fluorescent scans were obtained at multiple PMT values to maximize dynamic range. Raw data was analyzed using GenePix 7.0 software as previously described. Selectivity profiles and apparent KD curves were plotted in excel and Graphpad Prism. Apparent Kos were determined using one-site specific binding algorithm in Graphpad Prism.

Molecule	effect of single point mutation on binding between TG10 and PNAG 0
TG10 D109A: TG10 HC D109A (SEQ ID NO: 42) with TG10 LC (SEQ ID NO: 12) (antibody, V domains shown, Site directed mutatation of TG10 HC Variable Region; TG10 Light Chain Variable Region) VH: EVQLVESGGGLVQPGGSLRLSCAVSGFPFSSYWMSWVRQAPGKGLEWVANIKEDGSEKYYVDSVKGRFTISRDNAKNSLYLQMNSLRAEDTAVYYCATDPAVGLSDSWGQGTLVTVSS VL: EIVLTQSPGTLSLSPGDRATHSCRASQSVSRSYLAWYQQKPGQTPRLFIYGASNRATGIPDRFSGSGSGTYFTLTISRLEPEDFAVYYCQQYDSAPDTFGQGTRLEIK	greatly reduce
TG10 E57A: TG10 HC E57A (SEQ ID NO: 37) with TG10 LC (SEQ ID NO: 12) (antibody, V domains shown, Site directed mutation of TG10 HC Variable Region; TG10 Light Chain Variable Region) VH: EVQLVESGGGLVQPGGSLRLSCAVSGFPFSSYWMSWVRQAPGKGLEWVANIKADGSEKYYVDSVKGRFTISRDNAKNSLYLQMNSLRAEDTAVYYCATDPDVGLSDSWGQGTLVTVSS VL: EIVLTQSPGTLSLSPGDRATHSCRASQSVSRSYLAWYQQKPGQTPRLFIYGASNRATGIPDRFSGSGSGTYFTLTISRLEPEDFAVYYCQQYDSAPDTFGQGTRLEIK	greatly reduce
